Measured values as given in patent US20220267750A1 (Merck KGaA, published 2022).

Molecular target: GP41-1 C-intein-thioredoxin fusion protein (CINT_TRX)
Assay: cell-based or functional assay

B1: GP41-1 N-intein variant NINTΔA_TM fused with solubilization partner 138 (other)
chain: MTRSGYALDLKTQVQTPQGMKEISNIQVGDLVLSNTGYNEVLNVFPKSKKKSYKITLEDGKEIITSEEHLFPTQTGEMNISGGLKEGMMLYVKEGGMNKDEAGGNWKQFKGKVKEQWGKLTDDDMTIIEGKRDQLVGKIQERYGYQKDQAEKEVVDWETRNEYRW
catalytic rate (cleavage rate): ~3 fold of the parent construct NINTΔA_CC
